The Human Domainome abundance scans (Beltran et al. 2025)
± gives the uncertainty stated by the source.

B1: Cyclin-F, residues 28 to 80; numbered along this chain, P41002 (parent)
chain: RNLTILSLPEDVLFHILKWLSVEDILAVRAVHSQLKDLVDNHASVWACASFQE

Variants of: B1
Test: abundance fitness (aPCA) (normalised: wild type 0, dead -1); higher = more abundant; growth selection in yeast, the domain comes from the species named
Settings: Homo sapiens

Row | Variant | abundance fitness
1 | RNLTILSLPEDVLFHILKWTSVEDILAVRAVHSQLKDLVDNHASVWACASFQE [L20T] | -0.923 ± 0.21
2 | RNLTILSLPEDVLFHILKWVSVEDILAVRAVHSQLKDLVDNHASVWACASFQE [L20V] | -0.484 ± 0.11
3 | RNLTILSLPEDVLFHILKWWSVEDILAVRAVHSQLKDLVDNHASVWACASFQE [L20W] | -0.747 ± 0.19
4 | RNLTILSLPEDVLFHILKWYSVEDILAVRAVHSQLKDLVDNHASVWACASFQE [L20Y] | -0.75 ± 0.29
5 | RNLTILSLPEDVLFHILKWLAVEDILAVRAVHSQLKDLVDNHASVWACASFQE [S21A] | -0.113 ± 0.1
6 | RNLTILSLPEDVLFHILKWLCVEDILAVRAVHSQLKDLVDNHASVWACASFQE [S21C] | -0.311 ± 0.18
7 | RNLTILSLPEDVLFHILKWLDVEDILAVRAVHSQLKDLVDNHASVWACASFQE [S21D] | 0.135 ± 0.13
8 | RNLTILSLPEDVLFHILKWLEVEDILAVRAVHSQLKDLVDNHASVWACASFQE [S21E] | -0.092 ± 0.14
9 | RNLTILSLPEDVLFHILKWLFVEDILAVRAVHSQLKDLVDNHASVWACASFQE [S21F] | -0.731 ± 0.15
10 | RNLTILSLPEDVLFHILKWLGVEDILAVRAVHSQLKDLVDNHASVWACASFQE [S21G] | -0.226 ± 0.1
11 | RNLTILSLPEDVLFHILKWLHVEDILAVRAVHSQLKDLVDNHASVWACASFQE [S21H] | -0.334 ± 0.19
12 | RNLTILSLPEDVLFHILKWLIVEDILAVRAVHSQLKDLVDNHASVWACASFQE [S21I] | -0.405 ± 0.23
13 | RNLTILSLPEDVLFHILKWLKVEDILAVRAVHSQLKDLVDNHASVWACASFQE [S21K] | -0.272 ± 0.17
14 | RNLTILSLPEDVLFHILKWLLVEDILAVRAVHSQLKDLVDNHASVWACASFQE [S21L] | -0.855 ± 0.12
15 | RNLTILSLPEDVLFHILKWLMVEDILAVRAVHSQLKDLVDNHASVWACASFQE [S21M] | -0.815 ± 0.23
16 | RNLTILSLPEDVLFHILKWLNVEDILAVRAVHSQLKDLVDNHASVWACASFQE [S21N] | -0.148 ± 0.25
17 | RNLTILSLPEDVLFHILKWLPVEDILAVRAVHSQLKDLVDNHASVWACASFQE [S21P] | -0.047 ± 0.12
18 | RNLTILSLPEDVLFHILKWLQVEDILAVRAVHSQLKDLVDNHASVWACASFQE [S21Q] | -0.473 ± 0.17
19 | RNLTILSLPEDVLFHILKWLRVEDILAVRAVHSQLKDLVDNHASVWACASFQE [S21R] | -0.157 ± 0.09
20 | RNLTILSLPEDVLFHILKWLTVEDILAVRAVHSQLKDLVDNHASVWACASFQE [S21T] | -0.126 ± 0.1
21 | RNLTILSLPEDVLFHILKWLVVEDILAVRAVHSQLKDLVDNHASVWACASFQE [S21V] | -0.621 ± 0.12
22 | RNLTILSLPEDVLFHILKWLWVEDILAVRAVHSQLKDLVDNHASVWACASFQE [S21W] | -0.824 ± 0.16
23 | RNLTILSLPEDVLFHILKWLYVEDILAVRAVHSQLKDLVDNHASVWACASFQE [S21Y] | -0.566 ± 0.19
24 | RNLTILSLPEDVLFHILKWLSAEDILAVRAVHSQLKDLVDNHASVWACASFQE [V22A] | -0.142 ± 0.085
25 | RNLTILSLPEDVLFHILKWLSCEDILAVRAVHSQLKDLVDNHASVWACASFQE [V22C] | -0.286 ± 0.091

Row | Variant | abundance fitness
26 | RNLTILSLPEDVLFHILKWLSDEDILAVRAVHSQLKDLVDNHASVWACASFQE [V22D] | -0.405 ± 0.12
27 | RNLTILSLPEDVLFHILKWLSEEDILAVRAVHSQLKDLVDNHASVWACASFQE [V22E] | -0.285 ± 0.11
28 | RNLTILSLPEDVLFHILKWLSFEDILAVRAVHSQLKDLVDNHASVWACASFQE [V22F] | -0.141 ± 0.1
29 | RNLTILSLPEDVLFHILKWLSGEDILAVRAVHSQLKDLVDNHASVWACASFQE [V22G] | -0.553 ± 0.071
30 | RNLTILSLPEDVLFHILKWLSHEDILAVRAVHSQLKDLVDNHASVWACASFQE [V22H] | -0.122 ± 0.14
31 | RNLTILSLPEDVLFHILKWLSIEDILAVRAVHSQLKDLVDNHASVWACASFQE [V22I] | 0.005 ± 0.12
32 | RNLTILSLPEDVLFHILKWLSKEDILAVRAVHSQLKDLVDNHASVWACASFQE [V22K] | -0.132 ± 0.14
33 | RNLTILSLPEDVLFHILKWLSQEDILAVRAVHSQLKDLVDNHASVWACASFQE [V22Q] | -0.267 ± 0.12
34 | RNLTILSLPEDVLFHILKWLSREDILAVRAVHSQLKDLVDNHASVWACASFQE [V22R] | -0.177 ± 0.067
35 | RNLTILSLPEDVLFHILKWLSSEDILAVRAVHSQLKDLVDNHASVWACASFQE [V22S] | -0.452 ± 0.083
36 | RNLTILSLPEDVLFHILKWLSTEDILAVRAVHSQLKDLVDNHASVWACASFQE [V22T] | -0.168 ± 0.11
37 | RNLTILSLPEDVLFHILKWLSWEDILAVRAVHSQLKDLVDNHASVWACASFQE [V22W] | -0.087 ± 0.079
38 | RNLTILSLPEDVLFHILKWLSYEDILAVRAVHSQLKDLVDNHASVWACASFQE [V22Y] | 0.02 ± 0.098
39 | RNLTILSLPEDVLFHILKWLSVADILAVRAVHSQLKDLVDNHASVWACASFQE [E23A] | -0.053 ± 0.14
40 | RNLTILSLPEDVLFHILKWLSVCDILAVRAVHSQLKDLVDNHASVWACASFQE [E23C] | -0.627 ± 0.23
41 | RNLTILSLPEDVLFHILKWLSVDDILAVRAVHSQLKDLVDNHASVWACASFQE [E23D] | 0.057 ± 0.24
42 | RNLTILSLPEDVLFHILKWLSVGDILAVRAVHSQLKDLVDNHASVWACASFQE [E23G] | -0.48 ± 0.12
43 | RNLTILSLPEDVLFHILKWLSVHDILAVRAVHSQLKDLVDNHASVWACASFQE [E23H] | -0.358 ± 0.16
44 | RNLTILSLPEDVLFHILKWLSVKDILAVRAVHSQLKDLVDNHASVWACASFQE [E23K] | -0.105 ± 0.14
45 | RNLTILSLPEDVLFHILKWLSVLDILAVRAVHSQLKDLVDNHASVWACASFQE [E23L] | -0.856 ± 0.15
46 | RNLTILSLPEDVLFHILKWLSVMDILAVRAVHSQLKDLVDNHASVWACASFQE [E23M] | -0.802 ± 0.24
47 | RNLTILSLPEDVLFHILKWLSVNDILAVRAVHSQLKDLVDNHASVWACASFQE [E23N] | -0.319 ± 0.21
48 | RNLTILSLPEDVLFHILKWLSVPDILAVRAVHSQLKDLVDNHASVWACASFQE [E23P] | -0.236 ± 0.18
49 | RNLTILSLPEDVLFHILKWLSVRDILAVRAVHSQLKDLVDNHASVWACASFQE [E23R] | -0.001 ± 0.12
